Measurements published in patent publication US20250092143A1 (UNIVERSITY OF SOUTHERN CALIFORNIA, published 2025).

Tests used:
[1] = biological target: T1, αCD3-αEGFR-PD-1-OX40L GEMINI-Exos (human); assay: assay not named
T1 construct: Engineered exosome from Expi293F cells co-transfected with the αCD3-αEGFR-PDGFR TMD and PD-1-CD9-OX40L constructs; Both fusions sit on the same exosome; also called genetically engineered multifunctional immune-modulating exosomes
Experimental: FIG. 3. […] (A) Immunoblot analysis of purified exosomes. […] Data are shown as mean±SD of duplicates. […] The levels of secreted IL-2 were measured by ELISA.
ELISA analysis of binding of engineered exosomes to ligands and receptors. […] High-binding 96 well plates (Greiner Bio-One, Monroe, NC) were coated with various concentrations of exosomes overnight at room temperature. Following extensive washing with PBST, wells were blocked with PBS containing 1% BSA for 2 hours at room temperature, followed by extensive washing with PBST. Corresponding ligands or receptors ([…]; PD-L1-hFc and PD-L2-hFc from PeproTech, Inc. and OX40-hFc from BioLegend) were added and incubated for 2 hours at room temperature, followed by extensive washing with PBST. Goat anti-human IgG-HRP was subsequently added for 1-hour incubation at room temperature, followed by extensive washing. QuantaBlu fluorogenic peroxidase substrate (Thermo Fisher Scientific, MA) was then added.

[2] = biological target: T1, αCD3-αEGFR-PD-1-OX40L GEMINI-Exos; assay: flow cytometry on BT-20 cells, anti-HA detection
Experimental: BT-20 cells were treated with 100 U/mL IFN-γ (BioLegend) for 2 days to induce expression of PD-L1. […] Briefly, cells (300,000 cells per tube) were stained with 100 μg mL⁻¹ of exosomes for 30 minutes at 4° C. Cells were washed three times with PBS containing 2% FBS and stained with an anti-HA antibody (2-2.2.14, from Thermo Fisher Scientific) for 30 minutes at 4° C. […] Thereafter, cells were washed and resuspended in PBS containing 2% FBS, followed by analysis using a BD Fortessa X20 flow cytometer. Data were processed by FlowJo_V10 software (Tree Star Inc., Ashland, OR).

B1: PD-L2-hFc (Fc fusion, human, UniProt Q9BQ51 20-220, looked up)
chain: LFTVTVPKELYIIEHGSNVTLECNFDTGSHVNLGAITASLQKVENDTSPHRERATLLEEQLPLGKASFHIPQVQVRDEGQYQCIIIYGVAWDYKYLTLKVKASYRKINTHILKVPETDEVELTCQATGYPLAEVSWPNVSVPANTSHSRTPEGLYQVTSVLRLKPPPGRNFSCVFWNTHVRELTLASIDLQSQMEPRTHPT
notes: Bought from PeproTech; also called PD-L2-Fc; not shown: human Fc (hFc) of the bought reagent
[1]
  binding result: binds

B2: OX40-hFc (Fc fusion, human, UniProt P43489 29-214, looked up)
chain: LHCVGDTYPSNDRCCHECRPGNGMVSRCSRSQNTVCRPCGPGFYNDVVSSKPCKPCTWCNLRSGSERKQLCTATQDTVCRCRAGTQPLDSYKPGVDCAPCPPGHFSPGDNQACKPWTNCTLAGKHTLQPASNSSDAICEDRDPPATQPQETQGPPARPITVQPTEAWPRTSQGPSTRPVEVPGGRA
notes: Bought from BioLegend; also called OX40-Fc; biotinylated OX40-hFc; not shown: human Fc (hFc) of the bought reagent
[1]
  binding result: binds

B3: PD-L2 on IFN-γ stimulated BT-20 cells (ligand, human, UniProt Q9BQ51 20-273, looked up)
chain: LFTVTVPKELYIIEHGSNVTLECNFDTGSHVNLGAITASLQKVENDTSPHRERATLLEEQLPLGKASFHIPQVQVRDEGQYQCIIIYGVAWDYKYLTLKVKASYRKINTHILKVPETDEVELTCQATGYPLAEVSWPNVSVPANTSHSRTPEGLYQVTSVLRLKPPPGRNFSCVFWNTHVRELTLASIDLQSQMEPRTHPTWLLHIFIPFCIIAFIFIATVIALRKQLCQKLYSSKDTTKRPVTTTKREVNSAI
notes: whole, on cells; BT-20 cells also carry PD-L1 and EGFR; also called PD-L2^+ BT-20 cells
[2]
  binding result: binds
